This is an account of results in patent publication US20190256588A1 (BEIJING HANMI PHARM, published 2019).

In assay [1] the target is T1, recombinant human IL-17A (human, UniProt Q16552 24-155).
T1 construct: also called IL-17A antigen
The assay is described as follows: ELISA, recombinant human IL-17A coated at 1 µg/mL, HRP anti-human IgG, OD450nm. As for the experimental part:
The antigen binding activity of humanized anti-human IL-17A monoclonal antibody was determined by ELISA. Recombinant human IL-17A (purchased from Sino Biological Inc.) was coated on a 96-well high-absorbing ELISA plate with a carbonate buffer solution with pH 9.6, the coating concentration was 1 μg/mL, the coating amount was 100 μL per well, and the coating was carried at 4° C. out overnight. The plate was washed five times with PBST and blocked with 300 μL/well of PBST containing 1% BSA and incubated at 25° C. for 1 hour. The plate was washed five times with PBST. […] The plate was washed five times with PBST. Then, horseradish peroxidase-labeled anti-human IgG antibody (Chemicon, Catalog Number AP309P) 1:2000 diluted in PBST containing 1% BSA was added, 100 μL was added to each well, incubated at 25° C. for 1 hour. The plate was washed five times with PBST. 100 μL/well of colorimetric substrate TMB was added and incubated at room temperature for 10 minutes. Color development was terminated by adding 100 μL/well of 1 M H2SO₄. The absorbance at 450 nm was read on a microplate reader.
(In an ELISA, binding on a coated surface is turned into a signal by an enzyme label.)

Assay [2] has as its target T1, recombinant human IL-17A. The assay is described as follows: ELISA, recombinant human IL-17A coated at 1 µg/mL, HRP anti-mouse IgG, OD450nm. Here is the method: The plate was washed five times with PBST. […] The plate was washed five times with PBST. […] The plate was washed five times with PBST. 100 μL/well of colorimetric substrate TMB was added and incubated at room temperature for 10 minutes. Color development was terminated by adding 100 μL/well of 1 M H₂SO₄. The absorbance at 450 nm was read on a microplate reader.

A word on the EC50: it is the concentration needed to bring the measured effect to its halfway point.

T1 sequence (Q16552 24-155 limits assumed): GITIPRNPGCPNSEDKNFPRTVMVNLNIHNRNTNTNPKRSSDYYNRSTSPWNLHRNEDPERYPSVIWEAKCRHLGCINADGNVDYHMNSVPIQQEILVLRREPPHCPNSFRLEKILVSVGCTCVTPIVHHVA

B1: anti-human IL-17A humanized monoclonal antibody AS15799 (antibody, human IgG1, kappa, V domains shown)
VH: QVQVQESGPGLVKPSETLSLTCTVSGNSITSYYAWNWIRQPPGKGLEWMGYITYSGTTSYNPSLKSRVTISRDTSKNQFSLKLSSVTAADTAVYYCAREEYDDIYAVDYWGQGTLVTVSS
VL: IIVMTQSPLSLPVTLGQPASISCRSSQSLVHSNGNTYLHWYQQRPGQSPRRLIYKVYNRFSGVPDRFSGSGSGTDFTLKISRVEAEDVGVYYCSQSTHFPTFGQGTRLEIKR
For the molecule B1, the EC50 with recombinant human IL-17A [1] stood at 0.091 nM.

B2: anti-human IL-17A humanized monoclonal antibody AS15803 (antibody, human IgG1, kappa, V domains shown)
VH: QVQVQESGPGLVKPSETLSLTCTVSGNSITSYYAWNWIRQPPGKGLEWMGYITYSGTTSYNPSLKSRITISVDTSKNQFSLKLSSVTAADTAVYYCAREEYDDIYAVDYWGQGTLVTVSS
VL: IIVMTQSPLSLPVTLGQPASISCRSSQSLVHSNGNTYLHWYQQRPGQSPRLLIYKVYNRFSGVPDRFSGSGSGTDFTLKISRVEAEDVGVYFCSQSTHFPTFGQGTRLEIKR
Consider B2, for which the EC50 with recombinant human IL-17A [1] stood at 0.087 nM.

B3: anti-human IL-17A humanized monoclonal antibody AS15810 (antibody, human IgG1, kappa, V domains shown)
VH: QVQVQESGPGLVKPSETLSLTCTVSGNSITSYYAWNWIRQPPGKGLEWMGYITYSGTTSYNPSLKSRVTISVDTSKNQFSLKLSSVTAADTAVYYCAREEYDDIYAVDYWGQGTLVTVSS
VL: DVVMTQSPLSLPVTLGQPASISCRSSQSLVHSNGNTYLHWYQQRPGQSPRLLIYKVYNRFSGVPDRFSGSGSGTDFTLKISRVEAEDVGVYYCSQSTHFPTFGQGTRLEIKR
Take B3: the EC50 with recombinant human IL-17A [1] came to 0.083 nM.

B4: anti-human IL-17A humanized monoclonal antibody AS15815 (antibody, human IgG1, kappa, V domains shown)
VH: QVQVQESGPGLVKPSETLSLTCTVSGNSITSYYAWNWIRQPPGKGLEWMGYITYSGTTSYNPSLKSRITISRDTSKNQFSLKLSSVTAADTAVYYCAREEYDDIYAVDYWGQGTLVTVSS
VL: DVVMTQSPLSLPVTLGQPASISCRSSQSLVHSNGNTYLHWFQQRPGQSPRLLIYKVYNRFSGVPDRFSGSGSGTDFTLKISRVEAEDVGVYYCSQSTHFPTFGQGTRLEIKR
For B4, in the assay with recombinant human IL-17A [1], the EC50 stood at 0.077 nM.

B5: anti-human IL-17A humanized monoclonal antibody AS15805 (antibody, human IgG1, kappa, V domains shown)
VH: QVQVQESGPGLVKPSETLSLTCTVSGNSITSYYAWNWIRQPPGKGLEWMGYITYSGTTSYNPSLKSRITISRDTSKNQFSLKLSSVTAADTAVYYCAREEYDDIYAVDYWGQGTLVTVSS
VL: DIVMTQSPLSLPVTLGQPASISCRSSQSLVHSNGNTYLHWYQQRPGQSPRRLIYKVYNRFSGVPDRFSGSGSGTDFTLKISRVEAEDVGVYYCSQSTHFPTFGQGTRLEIKR
As for B5, in the assay with recombinant human IL-17A [1], the EC50 amounted to 0.082 nM.

B6: anti-human IL-17A humanized monoclonal antibody AS15820 (antibody, human IgG1, kappa, V domains shown)
VH: QVQLQESGPGLVKPSETLSLTCTVSGNSITSYYAWNWIRQPPGKGLEWMGYITYSGTTSYNPSLKSRVTISVDTSKNQFSLKLSSVTAADTAVYYCAREEYDDIYAVDYWGQGTLVTVSS
VL: DIVMTQSPLSLPVTLGQPASISCRSSQSLVHSNGNTYLHWYQQRPGQSPRLLIYKVYNRFSGVPDRFSGSGSGTDFTLKISRVEAEDVGVYFCSQSTHFPTFGQGTRLEIKR
As for B6, in the assay with recombinant human IL-17A [1], the EC50 stood at 0.089 nM.

B7: anti-human IL-17A humanized monoclonal antibody AS15802 (antibody, human IgG1, kappa, V domains shown)
VH: QVQLQESGPGLVKPSETLSLTCTVSGNSITSYYAWNWIRQPPGKGLEWMGYITYSGTTSYNPSLKSRVTISRDTSKNQFSLKLSSVTAADTAVYYCAREEYDDIYAVDYWGQGTLVTVSS
VL: IIVMTQSPLSLPVTLGQPASISCRSSQSLVHSNGNTYLHWYQQRPGQSPRLLIYKVYNRFSGVPDRFSGSGSGTDFTLKISRVEAEDVGVYFCSQSTHFPTFGQGTRLEIKR
For the molecule B7, in the assay with recombinant human IL-17A [1], the EC50 was determined as 0.088 nM.

B8: monoclonal antibody secreted by Clone No. 88 (antibody, V domains shown)
VH: DVQVQESGPGLVKPSQSLSLTCTVTGNSITSYYAWNWIRQFPGNKLEWMGYITYSGTTSYNPSLKSRISITRDTSKNQFFLQLNSVTTEDTATYYCAREEYDDIYAVDYWGQGTSVTVSS
VL: IIVMTQTPLSLPVSLGDQASISCRSSQSLVHSNGNTYLHWYLQKPGQSPKLLIYKVYNRFSGVPDRFSGSGSGTDFTLKISRVEAEDLGVYFCSQSTHFPTFGGGTKLEIK
notes: Murine hybridoma antibody tested as culture supernatant; also called murine anti-human IL-17A monoclonal antibody
With B8, the EC50 in the assay with recombinant human IL-17A [2] came out at 0.165 nM.
